Source: patent publication US20200317768A1 (published 2020)

T1: Cynomolgus monkey latent myostatin (cynomolgus monkey, UniProt Q95J86 25-266; Q95J86 267-375)
T1 construct: Latent form = complex of two propeptides and the mature dimer; also called Cyno latent myostatin
T1 sequence 1: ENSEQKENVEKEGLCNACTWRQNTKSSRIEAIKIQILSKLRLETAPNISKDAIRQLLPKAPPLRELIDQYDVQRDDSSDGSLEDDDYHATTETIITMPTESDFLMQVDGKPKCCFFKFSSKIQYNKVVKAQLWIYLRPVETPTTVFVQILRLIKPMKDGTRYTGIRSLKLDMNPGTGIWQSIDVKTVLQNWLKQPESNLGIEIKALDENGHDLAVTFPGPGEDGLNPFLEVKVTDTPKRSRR
T1 sequence 2: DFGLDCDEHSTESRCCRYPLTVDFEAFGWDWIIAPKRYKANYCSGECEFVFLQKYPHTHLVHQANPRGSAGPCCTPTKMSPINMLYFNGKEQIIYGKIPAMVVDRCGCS

T2: Mouse latent myostatin (mouse, UniProt O08689 26-267; O08689 268-376)
T2 construct: Latent form = complex of two propeptides and the mature dimer
T2 sequence 1: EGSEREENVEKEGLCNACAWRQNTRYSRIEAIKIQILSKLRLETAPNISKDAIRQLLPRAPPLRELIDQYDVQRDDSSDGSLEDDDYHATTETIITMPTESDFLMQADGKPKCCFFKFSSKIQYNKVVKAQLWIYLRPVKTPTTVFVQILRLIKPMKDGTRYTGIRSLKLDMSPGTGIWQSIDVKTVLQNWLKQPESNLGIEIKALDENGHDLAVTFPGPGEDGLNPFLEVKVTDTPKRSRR
T2 sequence 2: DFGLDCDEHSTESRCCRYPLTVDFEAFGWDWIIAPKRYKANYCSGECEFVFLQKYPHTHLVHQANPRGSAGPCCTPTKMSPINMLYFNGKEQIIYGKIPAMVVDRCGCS

T3: Human latent myostatin (human, UniProt O14793 25-266; O14793 267-375)
T3 construct: also called human myostatin latent form
T3 sequence 1: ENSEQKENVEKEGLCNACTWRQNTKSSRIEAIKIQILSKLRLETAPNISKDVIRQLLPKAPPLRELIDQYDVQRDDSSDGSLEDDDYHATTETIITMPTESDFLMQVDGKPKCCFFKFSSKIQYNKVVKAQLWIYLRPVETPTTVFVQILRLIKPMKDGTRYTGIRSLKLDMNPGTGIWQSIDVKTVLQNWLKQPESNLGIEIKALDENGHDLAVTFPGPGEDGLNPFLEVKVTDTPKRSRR
T3 sequence 2: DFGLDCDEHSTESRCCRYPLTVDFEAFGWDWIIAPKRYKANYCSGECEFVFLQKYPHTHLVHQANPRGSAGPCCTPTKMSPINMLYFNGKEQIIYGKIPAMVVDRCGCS

T4: human FcγRIIaH extracellular domain with C-terminal His-tag (human, UniProt P12318 34-217)
T4 construct: also called human FcgRIIaH; FcγRIIa (type H)
T4 sequence: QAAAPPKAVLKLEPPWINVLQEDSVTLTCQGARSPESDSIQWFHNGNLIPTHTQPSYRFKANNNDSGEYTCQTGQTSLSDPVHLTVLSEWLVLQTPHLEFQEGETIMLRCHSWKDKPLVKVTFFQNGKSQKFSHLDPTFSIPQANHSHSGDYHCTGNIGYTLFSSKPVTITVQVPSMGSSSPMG

T5: cynomolgus monkey FcγRIIIaS extracellular domain with C-terminal His-tag (cynomolgus monkey, UniProt Q8SPW2 21-206 at identity 1.00))
T5 construct: also called cyno FcgRIIIaS; cynoFcγRIIIaS
T5 chain: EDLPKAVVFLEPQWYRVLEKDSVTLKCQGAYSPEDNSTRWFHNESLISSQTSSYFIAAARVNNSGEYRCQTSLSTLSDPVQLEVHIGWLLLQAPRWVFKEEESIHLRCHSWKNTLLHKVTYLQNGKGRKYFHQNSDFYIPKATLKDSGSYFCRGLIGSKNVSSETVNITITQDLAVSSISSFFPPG

T6: cynomolgus monkey FcγRIIb extracellular domain with C-terminal His-tag (cynomolgus monkey)
T6 construct: also called cyno FcgRIIb; cynoFcγRIIb
T6 chain: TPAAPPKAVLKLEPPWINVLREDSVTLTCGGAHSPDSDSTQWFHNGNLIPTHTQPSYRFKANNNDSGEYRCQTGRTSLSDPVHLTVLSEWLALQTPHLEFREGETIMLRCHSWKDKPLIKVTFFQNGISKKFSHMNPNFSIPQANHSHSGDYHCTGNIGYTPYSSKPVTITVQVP


Tests used:
[1] = target: T1, Cynomolgus monkey latent myostatin; test: SPR 37C; KD pH 5.8 / KD pH 7.4
Mouse latent myostatin = target: T2, Mouse latent myostatin; test: SPR 37C; KD pH 5.8 / KD pH 7.4
Human latent myostatin = target: T3, Human latent myostatin; test: SPR 37C; KD pH 5.8 / KD pH 7.4
[2] = target: T4, human FcγRIIaH extracellular domain …; test: SPR (BIACORE), antibody captured, FcgR analyte
[3] = target: T5, cynomolgus monkey FcγRIIIaS …; test: SPR (BIACORE), antibody captured, FcgR analyte
[4] = target: T6, cynomolgus monkey FcγRIIb extracellular …; test: SPR (BIACORE), antibody captured, FcgR analyte

ratio of KD at pH 5.8/pH 7.4 [1]	ratio of KD at pH 5.8/pH 7.4 (Mouse latent myostatin)	ratio of KD at pH 5.8/pH 7.4 (Human latent myostatin)	Kd [2] [nM]	Kd [3] [nM]	Kd [4] [nM]	Binder
76	76	119				MS_M103205H795-SG1/M103202L889-SK1 (antibody, human IgG1, kappa, also called MS1032LO06-SG1) heavy: not shown light: DIVMTQSPATLSLSPGERATLSCTSSQSVYHANWLSWFQQKPGQPPKLLIYWASTLAYGVPSRFSGSGSGTDFTLTISSLQPEDAATYYCAGGYGGGRYAFGQGTKVEIKRTVAAPSVFIFPPSDEQLKSGTASVVCLLNNFYPREAKVQWKVDNALQSGNSQESVTEQDSKDSTYSLSSTLTLSKADYEKHKVYACEVTHQGLSSPVTKSFNRGEC
			690	360	1800	MS_M103205H795-SG1/M103202L889-SK1 (antibody, human IgG1, kappa, Parent antibody of the Fc variants; also called MS1032LO06-SG1) heavy: not shown light: DIVMTQSPATLSLSPGERATLSCTSSQSVYHANWLSWFQQKPGQPPKLLIYWASTLAYGVPSRFSGSGSGTDFTLTISSLQPEDAATYYCAGGYGGGRYAFGQGTKVEIKRTVAAPSVFIFPPSDEQLKSGTASVVCLLNNFYPREAKVQWKVDNALQSGNSQESVTEQDSKDSTYSLSSTLTLSKADYEKHKVYACEVTHQGLSSPVTKSFNRGEC
